{"source": "the nanobody polyreactivity screen of Harvey et al. (2022)"}
{"assay": "yeast display, Sf9 membrane polyspecificity reagent, FACS + sequencing; frameworks hold sequencing errors", "outline": "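Using colony PCR, genes from sorted yeast display clones were amplified, then sequenced on MiSeq at 2 × 250 and filtered by CDR length. The clones had been stained with 10% biotinylated, detergent-solubilized Sf9 membrane reagent for 1 hour at 4 °C and sorted by FACS into low and high (top ~1%) gates on anti-HA and streptavidin fluorescence. Polyreactivity labels come from the gate of origin.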"}
{"sequence": "QVQLVESGGGLVQAGGSLRLSCAASGSIFAKYAMGWYRQAPGKERELVASITYSGGGTYYADSVKGRFTISLDNAKNTVYLQMNSLKPEDTAFYYCNAVKRVYIWASFRYVFWYDSWGQATQVTVSS", "polyreactivity (PSR sort gate)": "high polyreactivity"}
{"sequence": "QVQLVESGGALHQAGGSLRLNCAASGRTFGANAMGWYRQAPGKERELVAAISSSDDSTYYADSVKGRFTISRDNAKKTVYLQMNSLKPEDTAVYYCAAEDVYRQLDYWGQGTQVTVSS", "polyreactivity (PSR sort gate)": "low polyreactivity"}
{"sequence": "QVQLVESGGGLVQAGGTLRLSCAASGIILSRYAMGWYIQAPGKERELVAAITRTTSTSYADSVKGRFTISRDNAKNTFYLQMNILKTEDTEVYYCAAVHYGGTAYYYWGQGTQVNVSS", "polyreactivity (PSR sort gate)": "high polyreactivity"}
{"sequence": "QVQLVESGGGLVQAGGSLRLSCAASGRIIPYYAMGWYRQAPGKERELVASTNYADSVKGRFTISRDNAKNTVYLQMNSLKPEDTAVYYCAADGYRYSVYLIRNPMDYWGQGTQVTVSS", "polyreactivity (PSR sort gate)": "low polyreactivity"}
{"sequence": "QVQLVESGGGLVQAGGSLRLSCAASGSTFSTYAMGWYRQAPGKERELVAAITAGGGSTYYADSVKGRFTISRDNAKNTVYLQMNSLKPEDTAVYYCAARSYYRFGGGYWGQGTQVTVSS", "polyreactivity (PSR sort gate)": "high polyreactivity"}
{"sequence": "QVQLVESGGGLVQAGGSLRLSCAASGSIFADNTMGWSRQAPGKERELVAAITSSGRTYYADSVTGRFTISRDNAKNTVYLQMKSLKPEDTAVYYCAAVIYFHDYSPYYYWGQGTQVTVSS", "polyreactivity (PSR sort gate)": "high polyreactivity"}
{"sequence": "QVQLVESGGGLVQAGGSLRLSCAASGSTFYGYAMGWNRQAPGKERELVADIDSIAGSTYYADSVKGRFTISRDNAKNTVYLQMNSLKPEDTAVYYCAARRFDTALVLYDYWGQGTQVTVSS", "polyreactivity (PSR sort gate)": "low polyreactivity"}
{"sequence": "QVQLVESGGGLVQAGGSLRLSCAASGSIFSYYAMGWYRQAPGKERELVADISFTGDSTYYADSVKGRFTISRDNAKNTVYLQMNSLKPEDTAVYYCAKDEIIAVYFEYDYWGQGTQVTVSS", "polyreactivity (PSR sort gate)": "low polyreactivity"}
{"sequence": "QVQLVESGGGLVQAGGSLRLSCAASGITLYYYTMGWYRQAPGKERELVAAISGSGGSTYYADSVKGRFTISRDNAKNTVYLQMNSLKPEDTAVYYCNTARSLKNHFYKYDYWGHGTQVTVSS", "polyreactivity (PSR sort gate)": "high polyreactivity"}
{"sequence": "QVQLVESGGGLVQAGGSLRLSCAASGSNFGYNAIGWYRKAPGKEREFVAGISWSGGRTYYADSEKGRFTISRDNAKNTVYLQMNSLKPEDTAVYYCAAPSRPAPRFDYWGQGTQVTVSS", "polyreactivity (PSR sort gate)": "low polyreactivity"}
{"sequence": "QVQLVESGGGLVQAGGSLRLSCAASGSTIPSNAMGWYRQAPGKERELVASITYTDGTTRYADSVKGRFTISRDNAKNTVYLQMNSLKPEDTAVYYCNAVYYREGMDYWGQGTQVTVSS", "polyreactivity (PSR sort gate)": "low polyreactivity"}
{"sequence": "QVQLVESGGGLVQAGGSLRLSCAASGSTFVNYAMVWYRQAPGKERELVAAITRGGYTYYADSVKGRFTISRDNAKNTVYLEMNSLKPEDTAFYYCNAAVSYPKYPYVSPGVPSYDYWGQGTQVSVSS", "polyreactivity (PSR sort gate)": "low polyreactivity"}
{"sequence": "QVQLVESGGGLVQAGGSLRLSCAASGRIIYGYAMGWYRQAHGKERELVASITATYYADSVKGRFTISLDNSKNTVYLQMNSLIPEDTAVYYCNAYLSPKHPLSRPDPTFEGGYRGQGTQVTVSS", "polyreactivity (PSR sort gate)": "low polyreactivity"}
{"sequence": "QVQLVESGGGLVQAGGSLRLSCAASGRTFRYNPMVWYRQAPGKERELVAAITWSGGSTYYADSVKGRFKISRDNAKNTVYLQMNSLKPEDTAVYYCNRRYYAYDWGQGTQVTVSS", "polyreactivity (PSR sort gate)": "high polyreactivity"}
{"sequence": "QVQLVESGGGLVQAGGTLRLSCAASGRIFGYNDMGWYRQAPGKERELVAAINRTGGSTYYADSVKGRFTISRDNAKNTVYLQMNSLKPEDTAVYYCNADARTKWVQTHTDFITDYDYWGQGTQVTVSS", "polyreactivity (PSR sort gate)": "low polyreactivity"}
{"sequence": "QVQLVESGGGLVQAGGSLRLSCAASGFIDAYTMGWYRQAPGKERELVAAITWSGGRTYYADSVKGRFTISRDNAKNTVYLQMNSLKPEDTAVYYCAATVSRGFYSWWYDYWGQGTQVTVSS", "polyreactivity (PSR sort gate)": "low polyreactivity"}
{"sequence": "QVQLVESGGGLVQAGGSLRLICAASGFTFGYYAMGWYRQAPGKERELVAAITSRGTRTSYADSVKGRFTISRDNEKNTVYLQMNSLKPEDTAVNYCAARVLRGLGEYYWGQGTQVTVSS", "polyreactivity (PSR sort gate)": "high polyreactivity"}
{"sequence": "QVQLVESGGGLVQAGVSLRLRCASSGSTFAYNAMGWYRQAPGKESELVAAISTSGGYTYYADSVKGRFTISRDNAKNTVYLQMNSLKPEDTAVYYCYAVGRSKHGYSRSYYWGQGTQVTVSS", "polyreactivity (PSR sort gate)": "high polyreactivity"}
{"sequence": "QDQLVESGGALVQAGGSLRLSCAPSGGTFWIYAMGWYRQAPGKERELVAGITTSGATTYYADSVKGRFTISRDNAKNTVYLQMNSLKPVDTAVYYCAADEYYRYEYWGHGTQVTVSS", "polyreactivity (PSR sort gate)": "low polyreactivity"}
{"sequence": "QVQLVESGGGLVQAGGSLRLSCAASGRIFIPYAMGWYRQAPGKERELVAVISWNGGSTYYADSVKGRFTISRDNAKNTVYLQMNSLKPEDTAVYYCAADTYPYAKMDYWGQGTQVTVSS", "polyreactivity (PSR sort gate)": "low polyreactivity"}
{"sequence": "QVQLVESGGGLVQAGGSLRLSCAASGFIFGPYAMGWYRQAPGKERELVADITIDSGSTYYADSVKGRFTISRDNAKNTVYLQMNSLKPEDTAVYYCATDYWNEYEYWGQGTQVTVSS", "polyreactivity (PSR sort gate)": "low polyreactivity"}
{"sequence": "QVQLVESGGGLVQSGGSLRLSCAASGSTFQSNAMGWYRQAPGKERELVATITQSGATTYYADSVKGRFTISRDNAKNTVYLQMNSLKPEDSAVYYCNVDTYQKRWFWLDLDGGYWGQGTQVTVSS", "polyreactivity (PSR sort gate)": "low polyreactivity"}
{"sequence": "QVQLVESGGGLVQAGGSLRLSCAASGITFATNAMGWYRQAPGKERELVAGITSGGSTYYADSVKGRFTISRDNAKNTVYLQMNSLKPEDTAVYYCAKRYHYWYGTGYDYWGQGTQVTVSS", "polyreactivity (PSR sort gate)": "low polyreactivity"}
{"sequence": "QVQLVESGGGLVQAGGSLRLSCAASGSIFYYNVMGWYRQAPGKETELVAAISQSGVRTYYADSVKGRFTISRDNAKNTVYLQMNSLKPEDTAVYYCAAKARRLYASSYDYWGQGTQVTVSS", "polyreactivity (PSR sort gate)": "high polyreactivity"}
{"sequence": "QVQLVESGGGLVQAGGSLGLSCAASGIIFQANAMGWYRQAPGKERELVAGISRGSSTNYADSVKGRFTISRDNEKNTVYLQMNILKPEDTAVYYCASDRGYGRISRNYYWGQGTQVTVSS", "polyreactivity (PSR sort gate)": "low polyreactivity"}
{"sequence": "QVQLVESGGGLVQAGGSLRLSCAASGSIFNGYDMGWYRQAPGKERELVAAISLSGDSTYYADSVKGRFTISRDYAKKTVYLQMNSLKPEDTAVYYCAAADYFRSYWGQGTQVTVSS", "polyreactivity (PSR sort gate)": "low polyreactivity"}
{"sequence": "QVQLVESGGGLVQAGGSLRLSCAASGRIFLGNALGWYRQPPGNERELVAAITYSGRSTYYADSVKGRFTISRDHAKNTVYLQMNSLKPEDTAVYFCAARQYWTTDLPFQRYYYWGQGTQVTVSS", "polyreactivity (PSR sort gate)": "low polyreactivity"}
{"sequence": "QVQLEESRGGLVQAGGSLRLSCAASGSTFVINDMGWYRQAPGKETELVAAISKSGGRTYYADSVKGRFTISRDNATNTVYLQMNSLKPEDTAVYYCAAVSQRTRYGYWGQGTQVTVSS", "polyreactivity (PSR sort gate)": "high polyreactivity"}
{"sequence": "QVQLVESGVGIVQAGGSLRLSSAPSGRTFTWYAMGRTRQAPGKERELVAAITNGGRTYADSVKGRFTISRDNAKNTVYLQMNSLKPEDTAVYYCAKVQYRGYLPHQRGRERDYDYWGQGTQVTVSS", "polyreactivity (PSR sort gate)": "low polyreactivity"}
{"sequence": "QVQLVESGGGLVQAGGSLRISCAASGRTFKNYSMGWYRQAPGKERELVAAITSGGITNYADSVKGRFTISRDNAKNTVYLQMNRLKPEDTAVYYCNTRRGWRDFDYWGQGTQVTVSS", "polyreactivity (PSR sort gate)": "low polyreactivity"}
{"sequence": "QVQLGESGGGLVQAGGTLRLSCAAYGFIFGIYDMGSYRQAPGKERELVAAITWDGDTTYYADSVKGRFTISRDNAKNTVYLQMNSLKPEDTAVFYCAVDDSRAYPRPYHWVEYYYWGQGTQVTVSS", "polyreactivity (PSR sort gate)": "low polyreactivity"}
{"sequence": "QVQLVESGGGLVQAGGSLRLSCAASGNTFYINAMGWYRQAPGKERELVAAINYSGDSTYADSVKGRFTISRDNAKNTVYLQMNSLKPEDSAVYYCAADWYFSVYIDYDTEYDYWGQGTQVTVSS", "polyreactivity (PSR sort gate)": "low polyreactivity"}
{"sequence": "QVQLVESGGGLVQAGGSLRLSCAASGITFWHNTMGWYRQAPGKERELVAAISWTGGRTYYADSVKGRFTISRDNAKNTVYLQMNSLKPEDTAVYYCAADFSWTPSGNYDSWGQGTQVTVSS", "polyreactivity (PSR sort gate)": "low polyreactivity"}
{"sequence": "QVQLVESGGGLVQAAGSLRLSCAASGRTSVRYAMGWNRQAHGKERELVAAISWSGGSTYYADSVKGRFTISRDNAKNTVYLQMNSLKPEDTAVYYCNAQHALGYYYWGQGTQVTVSS", "polyreactivity (PSR sort gate)": "low polyreactivity"}
{"sequence": "QVQLVESGGGLVQAGGSLRLSCAASGRILPRNAMGWYRQAPGKERELVATIDYSVGSTYYADSVKGRFTISRDNAKNTVYLQMNSLKPEDTAVYYCNAQVLVRPIQGEYGYWGRGTQVTVSS", "polyreactivity (PSR sort gate)": "low polyreactivity"}
{"sequence": "QVQLVESGGGLVQAGGSLRLSCAASGSTGLNAMGWYRQAPGKERELVAAITWSGGSTYYADSVKGRFTISRDNAKNTVYLQMNSLKPVDTAVYYCAAQYTWYKSRYGYWGQGTQVTVSS", "polyreactivity (PSR sort gate)": "high polyreactivity"}
{"sequence": "QVQLVESGGGLVQAGGSLRLSCAASGFIFAKYVMGWYRQAPGKERELVAAISRSGGSTYYADSVKGRFTISRDNAKNTVYLQMNSLKPDDTAVYYFAADQTTTGGMDFWGQGTQVTVSS", "polyreactivity (PSR sort gate)": "high polyreactivity"}
{"sequence": "QVQLVESGGGLVQAGGSLRLSCAASGRIFGQNVMGWYRQAPGKERELVAAITSAGRTYYADSVKGRFTISRDNAKNTVYLQMNSLKPEDTAVYYCAKVVSRKGYGYWGQGTQVTVSS", "polyreactivity (PSR sort gate)": "high polyreactivity"}
{"sequence": "QVQLVESGGGLVQAGGSLRLSCAASGSIFVYNAMGWYRQAPGKEREWVAGITLIGGSTYYADSVKGRFTISRDNAKNTVYLQMNSLKPEDTAVYYCNADVAPGIFYGYDSWGQGTQVTVSS", "polyreactivity (PSR sort gate)": "low polyreactivity"}
{"sequence": "QVQLVESGGGLVQAGGRLRLSCAASGFTYRGNAMGWYRHAPGKERELVAAITSSDDSTYYADSVKGRFTISRDNAKITVYLQMNSLKPVDTAVYYCAAVANGYWTYEYWGQGTLVTVSS", "polyreactivity (PSR sort gate)": "low polyreactivity"}
{"sequence": "QFQLVESGRGLVQAGGSLRLSCAASVRIFRGYAKGWYRQAPGKEREFVAANTKNGGSTYYADSVKGRFTISRDYAKNTVYLQMNSLKPEDTAVYYCAVRAWEPYTGKSDYWGQGTQVTVSS", "polyreactivity (PSR sort gate)": "low polyreactivity"}
